From article PMC9798254

Assays:
purified protein [1] = substrate: O=P(O)(O)OC[C@@H](O)[C@H]1O[C@@H](OP(=O)(O)O)[C@@H](O)[C@@H](O)[C@@H]1O; experiment: purified protein; conditions: 100 mM Tris/HCl pH 7.8, 5 mM MgCl2, 25°C
purified protein [2] = substrate: O=P(O)(O)OC[C@@H](O)[C@H]1O[C@H](OP(=O)(O)O)[C@@H](O)[C@@H](O)[C@@H]1O; experiment: purified protein; conditions: 100 mM Tris/HCl pH 7.8, 5 mM MgCl2, 25°C

B1: ecGmhB (Escherichia coli K-12) (protein)
chain: MAKSVPAIFLDRDGTINVDHGYVHEIDNFEFIDGVIDAMRELKKMGFALVVVTNQSGIARGKFTEAQFETLTEWMDWSLADRDVDLDGIYYCPHHPQGSVEEFRQVCDCRKPHPGMLLSARDYLHIDMAASYMVGDKLEDMQAAVAANVGTKVLVRTGKPITPEAENAADWVLNSLADLPQAIKKQQKPAQ
With B1 the Km (purified protein [1]) was 2.3 ± 0.3 µM, the kcat (purified protein [1]) was 35.7 ± 1.1 s⁻¹ and the kcat/Km (purified protein [1]) was 1.55e+07 M⁻¹ s⁻¹. The Km (purified protein [2]) was 117 ± 15 µM, the kcat (purified protein [2]) was 3.5 ± 0.2 s⁻¹ and the kcat/Km (purified protein [2]) was 29900 M⁻¹ s⁻¹.
